Target: FlAsH-labeled TC-apo-sGCβ (rat sGCβ(1–385) with a TC motif) (rat, UniProt P20595 1-385, TC motif (CCPGCC) inserted at residue 239 to 244, FlAsH dye bound to the tetra-Cys (TC) motif; heme-free (apo))
Assay: cell-based or functional assay

FlAsH-labeled TC-apo-sGCβ (rat sGCβ(1–385) with a TC motif), sequence (P20595 other isoform, or with tags, fused parts or gaps TC motif (CCPGCC) inserted at residue 239 to 244): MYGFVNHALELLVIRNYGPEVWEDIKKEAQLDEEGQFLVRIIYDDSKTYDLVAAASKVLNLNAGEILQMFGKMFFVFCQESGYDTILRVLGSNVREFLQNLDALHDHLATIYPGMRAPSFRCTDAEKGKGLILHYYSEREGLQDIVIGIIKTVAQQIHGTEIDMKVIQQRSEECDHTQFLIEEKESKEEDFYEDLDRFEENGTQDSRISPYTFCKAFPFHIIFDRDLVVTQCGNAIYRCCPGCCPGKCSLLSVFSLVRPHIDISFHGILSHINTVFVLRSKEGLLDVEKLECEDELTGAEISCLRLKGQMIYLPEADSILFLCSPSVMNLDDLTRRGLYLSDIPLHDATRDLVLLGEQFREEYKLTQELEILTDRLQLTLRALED

B1: glyceraldehyde 3-phosphate dehydrogenase (GAPDH), human (enzyme)
chain: not shown
heme transfer (FlAsH fluorescence kinetics) from the GAPDH–heme complex to a preformed complex of GAPDH bound on FlAsH-TC-apo-sGCβ, against FlAsH-TC-apo-sGCβ alone (Fig. S4): 5 fold slower

— paper PMC11938259, “Heme delivery into soluble guanylyl cyclase requires a heme redox change and is regulated by NO and Hsp90 by distinct mechanisms” (The Journal of Biological Chemistry, 2025)
